According to patent US20210347842A1 (Eli Lilly, published 2021):

Assays:
human PD-1 [1] = target: T1, human PD-1 (human, UniProt Q15116 21-170); experiment: bio-layer interferometry (BLI)
cynomolgus monkey PD-1 = target: T2, cynomolgus monkey PD-1 (cynomolgus monkey, UniProt B0LAJ3 25-170); experiment: not stated in the sentence (BLI named in the next sentence), 25 C
T2 construct: construct not described; also called cynomologous monkey PD-1

human PD-1 [2] = target: T1, human PD-1; experiment: not stated in the sentence (BLI named in the next sentence), 25 C; 25 C; stated bound in the text

T1 sequence (Q15116 21-170 limits assumed, form in doubt): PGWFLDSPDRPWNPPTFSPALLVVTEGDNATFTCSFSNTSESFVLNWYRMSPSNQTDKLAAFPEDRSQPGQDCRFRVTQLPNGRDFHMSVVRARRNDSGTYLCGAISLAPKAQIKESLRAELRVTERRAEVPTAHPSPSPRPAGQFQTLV
T2 sequence (B0LAJ3 entry or part of it limits assumed): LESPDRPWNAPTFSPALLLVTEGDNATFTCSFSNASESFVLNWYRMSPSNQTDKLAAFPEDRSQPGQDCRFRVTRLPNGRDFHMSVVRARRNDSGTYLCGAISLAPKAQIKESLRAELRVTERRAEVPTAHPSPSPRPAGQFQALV

B1: AM0001 (antibody, human IgG4 S228P, lambda, V domains shown)
VH: EVQLLESGGGLVQPGGSLRLSCPASGFTFSSYAMSWVRQAPGKGLGWVSDISGGGGTTYYADSVKGRFTISRDNSKNTLYLQMNSLRGEDTAVYYCAKSGTVVTDFDYWGQGTLVTVSS
VL: SYVLTQPPSVSVAPGQTARVTCGGNSIGSYSVHWYQQKPGQAPVLVVYDDSDRPSGIPERFSGSNSGNTAALTISRVEAGDEADYYCQVWDTSSYWVFGGGTKLTVLG
notes: Monoclonal antibody with lambda 2 light chain and hinge-stabilized IgG4 (S228P) heavy chain; also called PD1-antagonist antibody
For B1, the Kd (human PD-1 [1]) was less than 1 pM, the Kd (cynomolgus monkey PD-1) was no more than 10 pM and the Kd (human PD-1 [2]) was no more than 10 pM.
